Measurements reported in patent publication US20160291016.

Target: T1, phosphatidylinositol(4) phosphate 5 kinase type 1 gamma (PIPK1γ) of mouse osteoblasts, O70161
T1 chain: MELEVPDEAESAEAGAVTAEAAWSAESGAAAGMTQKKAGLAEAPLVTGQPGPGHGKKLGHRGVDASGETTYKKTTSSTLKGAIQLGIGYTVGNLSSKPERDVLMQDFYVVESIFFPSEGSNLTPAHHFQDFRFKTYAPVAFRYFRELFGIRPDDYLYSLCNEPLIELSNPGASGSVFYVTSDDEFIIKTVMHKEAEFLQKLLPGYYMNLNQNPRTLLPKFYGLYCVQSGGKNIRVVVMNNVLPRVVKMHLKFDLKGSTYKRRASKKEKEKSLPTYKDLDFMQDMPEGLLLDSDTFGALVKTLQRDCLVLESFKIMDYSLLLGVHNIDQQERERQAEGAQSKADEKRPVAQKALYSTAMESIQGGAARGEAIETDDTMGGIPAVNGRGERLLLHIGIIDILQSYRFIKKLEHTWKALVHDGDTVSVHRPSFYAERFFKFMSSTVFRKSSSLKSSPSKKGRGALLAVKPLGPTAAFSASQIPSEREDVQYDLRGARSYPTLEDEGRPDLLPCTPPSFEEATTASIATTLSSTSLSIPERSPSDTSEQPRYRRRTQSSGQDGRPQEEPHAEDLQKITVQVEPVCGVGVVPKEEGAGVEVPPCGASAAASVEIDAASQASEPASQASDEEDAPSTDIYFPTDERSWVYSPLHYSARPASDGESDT

B1: protein tyrosine phosphatase µ (PTPµ) of mouse osteoblasts (protein)
chain: ETFSGGCLFDEPYSTCGYSQADEDDFNWEQVNTLTKPTSDPWMPSGSFMLVNTSGKPEGQRAHLLLPQLKENDTHCIDFHYFVSSKSNAAPGLLNVYVKVNNGPLGNPIWNISGDPTRTWHRAELAISTFWPNFYQVIFEVVTSGHQGYLAIDEVKVLGHPCTRTPHFLRIQNVEVNAGQFATFQCSAIGRTVAGDRLWLQGIDVRDAPLKEIKVTSSRRFIASFNVVNTTKRDAGKYRCMICTEGGVGISNYAELVVKEPPVPIAPPQLASVGATYLWIQLNANSINGDGPIVAREVEYCTASGSWNDRQPVDSTSYKIGHLDPDTEYEISVLLTRPGEGGTGSPGPALRTRTKCADPMRGPRKLEVVEVKSRQITIRWEPFGYNVTRCHSYNLTVHYGYQVGGQEQVREEVSWDTDNSHPQHTITNLSPYTNVSVKLILMNPEGRKESQELTVQTDEDLPGAVPTESIQGSAFEEKIFLQWREPTQTYGVITLYEITYKAVSSFDPEIDLSNQSGRVSKLGNETHFLFFGLYPGTTYSFTIRASTAKGFGPPATNQFTTKISAPSMPAYEFETPLNQTDNTVTVMLKPAQSRGAPVSVYQIVVEEERPRRTKKTTEILKCYPVPIHFQNASILNSQYYFAAEFPADSLQAAQPFTIGDNKTYNGYWNTPLLPHKSYRIYYQAASRANGETKIDCVRVATKGAVTPKPVPEPEKQTDHTVKIAGVIAGILLFVIIFLGVVLVMKKRKLAKKRKETMSSTRQEMTVMVNSMDKSYAEQGTNCDEAFSFMGTHNLNGRSVSSPSSFTMKTNTLSTSVPNSYYPDETHTMASDTSSLAQPHTYKKREAADVPYQTGQLHPAIRVADLLQHITQMKCAEGYGFKEEYESFFEGQSAPWDSAKKDENRMKNRYGNIIAYDHSRVRLQMLEGDNNSDYINGNYIDGYHRPNHYIATQGPMQETIYDFWRMVWHENTASIIMVTNLVEVGRVKCCKYWPDDTEIYKDIKVTLIDTELLAEYVIRTFAVEKRGIHEIREIRQFHFTGWPDHGVPYHATGLLGFVRQVKSKSPPNAGPLVVHCSAGAGRTGCFIVIDIMLDMAEREGVVDIYNCVRELRSRRVNMVQTEEQYVFIHDAILEACLCGDTSIPASQVRSLYYDMNKLDPQTNSSQIKEEFRTLNMVTPTLRVEDCSIALLPRNHEKNRCMDILPPDRCLPFLITIDGESSNYINAALMDSYKQPSAFIVTQHPLPNTVKDFWRLVLDYHCTSVVMLNDVDPAQLCPQYWPENGVHRHGPIQVEFVSADLEEDIISRIFRIYNASRPQDGHRMVQQFQFLGWPMYRDTPVSKRSFLKLIRQVDKWQEEYNGGEGRTVVHCLNGGGRSGTFCAISIVCEMLRHQRTVDVFHAVKTLRNNKPNMVDLLDQYKFCYEVALEYLNSG
For B1, the “tyrosine phosphorylation of PIPK1γ (immunoprecipitation with PIPK1γ antibody, blot with phospho-tyrosine antibody)” value was “Phosphorylation levels of PIPK1γ were higher in osteoblasts from PTPµ^-/- than in those from WT mice”.
